Results reported in paper PMC10995192 (Nature Communications, 2024).
Values belong to the molecule of their own block, whether it stands above or below them.

Tests used:
[1] = biological target: SNS-101, fully human monoclonal IgG1 kappa antibody against VISTA (human); experiment: SPR; SNS-101 captured on IgG capture chip, VISTA-His as analyte (0-30 nM), 25 C, PBS 0.05% Tween 20, pH 5.8; 1:1 Langmuir MTL fit
[2] = biological target: SNS-101, fully human monoclonal IgG1 kappa antibody against VISTA (human); experiment: SPR; SNS-101 captured on IgG capture chip, VISTA-His as analyte (0-30 nM), 25 C, PBS 0.05% Tween 20, pH 6.0; 1:1 Langmuir MTL fit
[3] = biological target: SNS-101, fully human monoclonal IgG1 kappa antibody against VISTA (human); experiment: SPR; SNS-101 captured on IgG capture chip, VISTA-His as analyte (0-30 nM), 25 C, PBS 0.05% Tween 20, pH 6.2; 1:1 Langmuir MTL fit
[4] = biological target: SNS-101, fully human monoclonal IgG1 kappa antibody against VISTA (human); experiment: SPR; SNS-101 captured on IgG capture chip, VISTA-His as analyte (0-240 nM), 25 C, PBS 0.05% Tween 20, pH 6.4; 1:1 Langmuir MTL fit
[5] = biological target: SNS-101, fully human monoclonal IgG1 kappa antibody against VISTA (human); experiment: SPR; SNS-101 captured on IgG capture chip, VISTA-His as analyte (0-240 nM), 25 C, PBS 0.05% Tween 20, pH 6.6; 1:1 Langmuir MTL fit
[6] = biological target: SNS-101, fully human monoclonal IgG1 kappa antibody against VISTA (human); experiment: SPR; SNS-101 captured on IgG capture chip, VISTA-His as analyte (0-240 nM), 25 C, PBS 0.05% Tween 20, pH 6.8; 1:1 Langmuir MTL fit
[7] = biological target: SNS-101, fully human monoclonal IgG1 kappa antibody against VISTA (human); experiment: SPR; SNS-101 captured on IgG capture chip, VISTA-His as analyte (0-480 nM), 25 C, PBS 0.05% Tween 20, pH 7.0; 1:1 Langmuir MTL fit
[8] = biological target: SNS-101, fully human monoclonal IgG1 kappa antibody against VISTA (human); experiment: SPR; SNS-101 captured on IgG capture chip, VISTA-His as analyte (0-480 nM), 25 C, PBS 0.05% Tween 20, pH 7.2; 1:1 Langmuir MTL fit
[9] = biological target: SNS-101, fully human monoclonal IgG1 kappa antibody against VISTA (human); experiment: SPR; SNS-101 captured on IgG capture chip, VISTA-His as analyte (0-480 nM), 25 C, PBS 0.05% Tween 20, pH 7.4; 1:1 Langmuir MTL fit
[10] = biological target: SNS-101, fully human monoclonal IgG1 kappa anti-VISTA antibody (human); experiment: SPR; panel of VISTA-His variants and wild type as analytes over captured SNS-101; pH 5.8 (PBS, 0.05% Tween-20), 25 °C
[11] = biological target: PSGL-1-19mer-Fc (19 N-terminal residues of human PSGL-1 fused to human IgG1-Fc) (human) (UniProt Q14242); experiment: SPR; PSGL-1-19mer-Fc captured on IgG capture chip, VISTA-His (0-960 nM) as analyte; pH 6.0, PBS + 0.05% Tween-20; KD from equilibrium analysis
Chain of PSGL-1-19mer-Fc (19 N-terminal residues of human PSGL-1 fused to human IgG1-Fc) (human) (Q14242 42-412): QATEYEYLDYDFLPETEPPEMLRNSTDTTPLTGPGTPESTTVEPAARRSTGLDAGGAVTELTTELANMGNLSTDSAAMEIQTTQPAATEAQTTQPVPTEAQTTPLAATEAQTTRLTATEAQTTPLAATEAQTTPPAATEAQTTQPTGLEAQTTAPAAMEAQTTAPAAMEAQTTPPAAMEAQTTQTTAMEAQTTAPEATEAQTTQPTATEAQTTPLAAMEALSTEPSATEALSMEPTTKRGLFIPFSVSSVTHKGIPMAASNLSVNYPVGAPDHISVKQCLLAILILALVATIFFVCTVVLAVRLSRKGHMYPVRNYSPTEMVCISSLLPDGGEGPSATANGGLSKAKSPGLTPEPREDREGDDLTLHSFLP

[12] = biological target: SNS-101, fully human monoclonal IgG1 kappa anti-VISTA antibody (human); experiment: SPR; SNS-101 captured on IgG capture chip, VISTA-His (0-30 nM) as analyte; pH 5.8, PBS + 0.05% Tween 20, 25 °C; 1:1 Langmuir MTL fit; pH series
[13] = biological target: SNS-101, fully human monoclonal IgG1 kappa anti-VISTA antibody (human); experiment: SPR; SNS-101 captured on IgG capture chip, VISTA-His (0-30 nM) as analyte; pH 6.0, PBS + 0.05% Tween 20, 25 °C; 1:1 Langmuir MTL fit; pH series
[14] = biological target: SNS-101, fully human monoclonal IgG1 kappa anti-VISTA antibody (human); experiment: SPR; SNS-101 captured on IgG capture chip, VISTA-His (0-30 nM) as analyte; pH 6.2, PBS + 0.05% Tween 20, 25 °C; 1:1 Langmuir MTL fit; pH series
[15] = biological target: SNS-101, fully human monoclonal IgG1 kappa anti-VISTA antibody (human); experiment: SPR; SNS-101 captured on IgG capture chip, VISTA-His (0-240 nM) as analyte; pH 6.4, PBS + 0.05% Tween 20, 25 °C; 1:1 Langmuir MTL fit; pH series
[16] = biological target: SNS-101, fully human monoclonal IgG1 kappa anti-VISTA antibody (human); experiment: SPR; SNS-101 captured on IgG capture chip, VISTA-His (0-240 nM) as analyte; pH 6.6, PBS + 0.05% Tween 20, 25 °C; 1:1 Langmuir MTL fit; pH series
[17] = biological target: SNS-101, fully human monoclonal IgG1 kappa anti-VISTA antibody (human); experiment: SPR; SNS-101 captured on IgG capture chip, VISTA-His (0-240 nM) as analyte; pH 6.8, PBS + 0.05% Tween 20, 25 °C; 1:1 Langmuir MTL fit; pH series
[18] = biological target: SNS-101, fully human monoclonal IgG1 kappa anti-VISTA antibody (human); experiment: SPR; SNS-101 captured on IgG capture chip, VISTA-His (0-480 nM) as analyte; pH 7.0, PBS + 0.05% Tween 20, 25 °C; 1:1 Langmuir MTL fit; pH series
[19] = biological target: SNS-101, fully human monoclonal IgG1 kappa anti-VISTA antibody (human); experiment: SPR; SNS-101 captured on IgG capture chip, VISTA-His (0-480 nM) as analyte; pH 7.2, PBS + 0.05% Tween 20, 25 °C; 1:1 Langmuir MTL fit; pH series
[20] = biological target: SNS-101, fully human monoclonal IgG1 kappa anti-VISTA antibody (human); experiment: SPR; SNS-101 captured on IgG capture chip, VISTA-His (0-480 nM) as analyte; pH 7.4, PBS + 0.05% Tween 20, 25 °C; 1:1 Langmuir MTL fit; pH series
[21] = biological target: T1, C-terminal biotinylated hVISTA-Fc fusion protein (R&D Systems AVI7126-050) (human, UniProt Q9H7M9 33-194, biotin, C-terminal); experiment: ELISA; partner proteins coated at 5 µg/ml, biotinylated hVISTA-Fc serially diluted in 1% NFDM in PBS at pH 6.0; HRP-streptavidin; details: both partners purified
T1 construct: VISTA, human; source: bought: R&D Systems AVI7126-050
T1 sequence (looked up): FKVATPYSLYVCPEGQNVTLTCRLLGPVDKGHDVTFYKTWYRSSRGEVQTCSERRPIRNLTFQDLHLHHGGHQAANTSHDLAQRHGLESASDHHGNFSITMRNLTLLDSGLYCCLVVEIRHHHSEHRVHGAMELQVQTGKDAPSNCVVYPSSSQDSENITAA

[22] = biological target: T2, VISTA-His H98A/H100A/H154A/H155A/R159A (human, UniProt Q9H7M9, H98A | H100A | H154A | H155A | R159A); experiment: SPR; panel of VISTA-His variants and wild type as analytes over captured SNS-101; pH 5.8 (PBS, 0.05% Tween-20), 25 °C; details: both partners purified
T2 construct: VISTA, human; probably the extracellular domain; source: Expi293, purified (Ni-NTA)

koff [1]: 0.00129 s⁻¹
kon [1]: 3.68e+06 M⁻¹ s⁻¹
Kd [2]: 0.779 nM
koff [2]: 0.00213 s⁻¹
kon [2]: 2.74e+06 M⁻¹ s⁻¹
Kd [3]: 1.78 nM
koff [3]: 0.00219 s⁻¹
kon [3]: 1.23e+06 M⁻¹ s⁻¹
Kd [4]: 5.96 nM
koff [4]: 0.00321 s⁻¹
kon [4]: 539000 M⁻¹ s⁻¹
Kd [5]: 18.5 nM
koff [5]: 0.00566 s⁻¹
kon [5]: 306000 M⁻¹ s⁻¹
Kd [6]: 40.1 nM
koff [6]: 0.00842 s⁻¹
kon [6]: 210000 M⁻¹ s⁻¹
Kd [7]: 77 nM
koff [7]: 0.0101 s⁻¹
kon [7]: 131000 M⁻¹ s⁻¹
Kd [8]: 134 nM
koff [8]: 0.0147 s⁻¹
kon [8]: 110000 M⁻¹ s⁻¹
koff [9]: 0.0308 s⁻¹
kon [9]: 87200 M⁻¹ s⁻¹
Molecule: VISTA-His (human VISTA, V-domain immunoglobulin suppressor of T-cell activation, with His tag) (from UniProt Q9H7M9 33-311) (natural protein)

Kd [10]: 0.7 nM
koff [10]: 0.0022 s⁻¹
kon [10]: 3.2e+06 M⁻¹ s⁻¹
Kd [11]: 600 nM
koff [12]: 0.00129 s⁻¹
kon [12]: 3.68e+06 M⁻¹ s⁻¹
Kd [13]: 0.779 nM
koff [13]: 0.00213 s⁻¹
kon [13]: 2.74e+06 M⁻¹ s⁻¹
Kd [14]: 1.78 nM
koff [14]: 0.00219 s⁻¹
kon [14]: 1.23e+06 M⁻¹ s⁻¹
Kd [15]: 5.96 nM
koff [15]: 0.00321 s⁻¹
kon [15]: 539000 M⁻¹ s⁻¹
Kd [16]: 18.5 nM
koff [16]: 0.00566 s⁻¹
kon [16]: 306000 M⁻¹ s⁻¹
Kd [17]: 40.1 nM
koff [17]: 0.00842 s⁻¹
kon [17]: 210000 M⁻¹ s⁻¹
Kd [18]: 77 nM
koff [18]: 0.0101 s⁻¹
kon [18]: 131000 M⁻¹ s⁻¹
Kd [19]: 134 nM
koff [19]: 0.0147 s⁻¹
kon [19]: 110000 M⁻¹ s⁻¹
koff [20]: 0.0308 s⁻¹
kon [20]: 87200 M⁻¹ s⁻¹
Molecule: VISTA-His (wild-type human VISTA) (from UniProt Q9H7M9 33-311) (natural protein)

binding result [21]: binds
B1: hSyndecan-2 (R&D Systems 2965-SD) (natural protein, human, UniProt P34741 19-144, looked up)
chain: ESRAELTSDKDMYLDNSSIEEASGVYPIDDDDYASASGSGADEDVESPELTTSRPLPKILLTSAAPKVETTTLNIQNKIPAQTKSPEETDKEKVHLSDSERKMDPAEEDTNVYTEKHSDSLFKRTE
notes: Syndecan-2, human; source: bought: R&D Systems 2965-SD

Kd [22]: > 960 nM
B2: SNS-101, fully human monoclonal IgG1 kappa anti-VISTA antibody (antibody, V domains shown)
VH: EVQLVESGGGLVQPGGSLRLSCAASGFTFDDYSMNWVRQAPGKGLEWVSYISSDADTIYYADSVKGRFTISRDNAKNSLYLQMNSLRAEDTAVYYCAREAGGVLGRVDFQHWGQGTLVTVSS
VL: DIQLTQSPSSLSASVGDRVTITCQASQDISNYLNWYQQKPGKAPKLLIYDASNLGTGVPSRFSGSGSGTDFTFTISSLQPEDIATYYCQQADFVPPWTFGGGTKVEIK
notes: the Fab part is in PDB 8TBQ; human IgG1 heavy chain; the light chain is in PDB 8TBQ; human kappa light chain; IgG1 kappa; captured on an IgG capture sensor chip in SPR; source: ExpiCHO, transient transfection, purified (Protein A)
